Data published in paper PMC12318544, “Roughhousing with Ions: Surface-Induced Dissociation and Electron Capture Dissociation as Diagnostics of Q-Cyclic IMS-TOF Instrument Tuning Gentleness” (Journal of the American Society for Mass Spectrometry, 2024).
One block for each molecule: values may come before it.

What was measured:
Assay in all cases: native MS; nanoESI on a Waters SELECT Series Cyclic IMS (Q-IM-TOF), gentle tuning at low cone voltage; quadrupole-selected charge-reduced precursor, surface-induced dissociation and ion mobility; 160/40 ammonium acetate/triethylammonium acetate; CRP 1 uM, SA 2-3 uM, PhosB 4 uM; TRAP ~1.5 uM complex in 600 mM ammonium acetate with TEAA added for 15+
streptavidin = streptavidin (UniProt P22629)
[1] = molecular target: T1, human recombinant C-reactive protein (human), P02741; conditions: remark: other sources report otherwise
T1 chain: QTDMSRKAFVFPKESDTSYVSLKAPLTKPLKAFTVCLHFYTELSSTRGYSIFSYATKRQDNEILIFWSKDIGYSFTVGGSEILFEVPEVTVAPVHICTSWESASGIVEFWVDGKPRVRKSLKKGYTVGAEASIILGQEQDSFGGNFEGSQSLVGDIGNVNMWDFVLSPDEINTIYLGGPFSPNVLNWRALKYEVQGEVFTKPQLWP

[2] = molecular target: the molecule itself

B2: Tryptophan RNA-binding attenuation protein (TRAP) from Bacillus stearothermophilus (natural protein, UniProt Q9X6J6 1-74, looked up)
chain: MYTNSDFVVIKALEDGVNVIGLTRGADTRFHHSEKLDKGEVLIAQFTEHTSAIKVRGKAYIQTRHGVIESEGKK
notes: also called TRAP bst; source: Mark Foster's lab; copies: 11
- stoichiometry N [2]: 11

B3: phosphorylase B (enzyme, UniProt P00489 1-843, looked up)
chain: MSRPLSDQEKRKQISVRGLAGVENVTELKKNFNRHLHFTLVKDRNVATPRDYYFALAHTVRDHLVGRWIRTQQHYYEKDPKRIYYLSLEFYMGRTLQNTMVNLALENACDEATYQLGLDMEELEEIEEDAGLGNGGLGRLAACFLDSMATLGLAAYGYGIRYEFGIFNQKICGGWQMEEADDWLRYGNPWEKARPEFTLPVHFYGRVEHTSQGAKWVDTQVVLAMPYDTPVPGYRNNVVNTMRLWSAKAPNDFNLKDFNVGGYIQAVLDRNLAENISRVLYPNDNFFEGKELRLKQEYFVVAATLQDIIRRFKSSKFGCRDPVRTNFDAFPDKVAIQLNDTHPSLAIPELMRVLVDLERLDWDKAWEVTVKTCAYTNHTVLPEALERWPVHLLETLLPRHLQIIYEINQRFLNRVAAAFPGDVDRLRRMSLVEEGAVKRINMAHLCIAGSHAVNGVARIHSEILKKTIFKDFYELEPHKFQNKTNGITPRRWLVLCNPGLAEIIAERIGEEYISDLDQLRKLLSYVDDEAFIRDVAKVKQENKLKFAAYLEREYKVHINPNSLFDVQVKRIHEYKRQLLNCLHVITLYNRIKKEPNKFVVPRTVMIGGKAAPGYHMAKMIIKLITAIGDVVNHDPVVGDRLRVIFLENYRVSLAEKVIPAADLSEQISTAGTEASGTGNMKFMLNGALTIGTMDGANVEMAEEAGEENFFIFGMRVEDVDRLDQRGYNAQEYYDRIPELRQIIEQLSSGFFSPKQPDLFKDIVNMLMHHDRFKVFADYEEYVKCQERVSALYKNPREWTRMVIRNIATSGKFSSDRTIAQYAREIWGVEPSRQRLPAPDEKIP
notes: phosphorylase B, dimer, 197 kDa; This catalogue product is recalled to be from rabbit muscle (surmise); also called PhosB; source: bought: Millipore Sigma (P/N P6635)
- stoichiometry N [2]: 2

Further lines, results first:

- stoichiometry N (streptavidin): 4
Molecule: streptavidin (from UniProt P22629 25-183) (natural protein)

- stoichiometry N [1]: 5
B1: human recombinant C-reactive protein, P02741 19-224 (natural protein)
chain: T1 chain
